Key:
[1] = molecular target: 人源CD47 (on cells: hCD47-overexpressing CHO-K1; Raji) (human) (UniProt Q08722); assay: flow cytometry, control human IgG on CHO-K1 overexpressing human CD47 (PBS background 139.0)
[2] = molecular target: 食蟹猴CD47 (on overexpressing CHO-K1 cells) (cynomolgus monkey); assay: flow cytometry, control human IgG on CHO-K1 overexpressing cynomolgus CD47 (PBS background 92.8)

Chain of UniProt Q08722 (Q08722 19-323): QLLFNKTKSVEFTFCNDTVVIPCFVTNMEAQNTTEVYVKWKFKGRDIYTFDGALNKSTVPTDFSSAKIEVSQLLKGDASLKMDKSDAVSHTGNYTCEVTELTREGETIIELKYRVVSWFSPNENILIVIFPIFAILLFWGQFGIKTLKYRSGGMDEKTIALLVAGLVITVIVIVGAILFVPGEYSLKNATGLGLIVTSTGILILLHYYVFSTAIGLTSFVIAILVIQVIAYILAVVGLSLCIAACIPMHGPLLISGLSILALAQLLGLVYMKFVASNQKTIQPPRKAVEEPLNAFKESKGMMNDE

- MFI [1]: 101 MFI
- MFI [2]: 71 MFI
Substance: human IgG (antibody)
